{"source": "paper PMC3289617", "about": "“Biochemical, Mutational and In Silico Structural Evidence for a Functional Dimeric Form of the Ornithine Decarboxylase from Entamoeba histolytica” (PLoS Neglected Tropical Diseases, 2012)", "molecules": {"B1": {"name": "Ornithine decarboxylase from Entamoeba histolytica (EhODC), wild type (enzyme, UniProt Q58P26 1-413, looked up)", "chain": "MKQTSLEVKEFALNLISQFEPENQPLGFWIFDTEGVEKAVERWKKNMPTVRPCFAVKCNPEPHLVKLLGELGCGFDCASLNEIKEVLDLGFNPEDITYSQTFKPYNQLIEASHLGINHTIVDSIDEVQKIAKYAPKMGIMIRIMENDTSAGHVFGEKFGLHDDEVEIVLKEIKDKGLNLDGVHFHVGSDSHNSEVFTKALTKARNTVTLAEQFGMKPYLIDIGGGFSQVAPFEEFAATIEKTIKELEFPERTRFIAEPGRYMASNAFHLVSSLHGKRVRIQNGKKQIEYTSGDGLHGSFGCCIWFEKQKSCECITQKVNENTKMYESIIYGPSCNGSDKVATQELPEMEPGKDWLLFPNMGAYTISMATNFNGFEERNHVIYTLPLKSTKIIQIPKSIECNSVPSLNGIPHYA", "notes": "Ornithine decarboxylase, Entamoeba histolytica, NCBI AAX35675, 413 amino acids, predicted 46.43 kDa; full-length gene in pET30a; The His tag is followed by an enterokinase site and was removed before gel filtration; PLP is the cofactor; also called E. histolytica ODC; source: E. coli BL21 (DE3), purified (HisTrap HP, enterokinase cleavage, second HisTrap, Superdex 200); not shown: His6, …"}}, "key": {"[1]": {"molecular_target": "EhODC Lys157Ala mutant (Entamoeba histolytica)", "experiment": "SEC; HiLoad 16/60 Superdex 200, buffer B (50 mM Tris-HCl pH 7.5, 250 mM NaCl, 0.2 mM DTT, 5% glycerol), 500 µl of ~10 mg/ml protein, 0.5 ml/min, calibrated with HMW standards; the wild type was also run after 4 h at 4°C with 2 M or 4 M NaCl or urea (partial dissociation to monomer)"}, "[2]": {"molecular_target": "EhODC Cys334Ala mutant (Entamoeba histolytica)"}, "[3]": {"molecular_target": "EhODC Lys57Ala mutant (Entamoeba histolytica)", "experiment": "SEC; gel filtration of the active-site mutants, data not shown"}, "[4]": {"molecular_target": "EhODC Gly361Tyr mutant (Entamoeba histolytica)", "experiment": "SEC; HiLoad 16/60 Superdex 200, buffer B (50 mM Tris-HCl pH 7.5, 250 mM NaCl, 0.2 mM DTT, 5% glycerol), 500 µl of ~10 mg/ml protein, 0.5 ml/min, calibrated with HMW standards; the wild type was also run after 4 h at 4°C with 2 M or 4 M NaCl or urea (partial dissociation to monomer)"}, "[5]": {"molecular_target": "EhODC Cys334Ala mutant (Entamoeba histolytica)", "experiment": "SEC; gel filtration of the active-site mutants, data not shown"}, "[6]": {"molecular_target": "the molecule itself", "experiment": "cross-linking; glutaraldehyde vapour (12.5%, acidified) over a hanging drop of 15 µl protein at 1 mg/ml in 20 mM sodium phosphate pH 7.5, 37°C, 10 min; 12% SDS-PAGE, Coomassie"}}, "data": [{"molecule": "EhODC Lys157Ala mutant (enzyme)", "values": [{"measurement": "stoichiometry N", "setting": "[1]", "result": 2}]}, {"molecule": "EhODC Lys57Ala mutant (enzyme)", "values": [{"measurement": "ornithine decarboxylase activity (colorimetric DAO/HRP assay) of the two inactive mutants mixed in equal concentration (1:1), relative to wild type; each mutant alone ~2% (% of wild-type activity)", "setting": "[2]", "result": 29}, {"measurement": "stoichiometry N", "setting": "[3]", "result": 2}]}, {"molecule": "EhODC Gly361Tyr mutant (enzyme)", "values": [{"measurement": "stoichiometry N", "setting": "[4]", "result": 2}]}, {"molecule": "EhODC Cys334Ala mutant (enzyme)", "values": [{"measurement": "stoichiometry N", "setting": "[5]", "result": 2}]}, {"molecule": "B1", "values": [{"measurement": "stoichiometry N", "setting": "[6]", "result": 2}]}]}
